Positions count from the first letter of the chain named. Read-outs that look alike come from different tables or passages of the source.
B1: WT-GlucDH: wild type (native) glucose dehydrogenase from Bacillus subtilis (protein, listed as Bacillus subtilis)
chain: MYPDLKGKVVAITGAASGLGKAMAIRFGKEQAKVVINYYSNKQDPNEVKEEVIKAGGEAVVVQGDVTKEEDVKNIVQTAIKEFGTLDIMINNAGLENPVPSHEMPLKDWDKVIGTNLTGAFLGSREAIKYFVENDIKGNVINMSSVHEVIPWPLFVHYAASKGGIKLMTETLALEYAPKGIRVNNIGPGAINTPINAEKFADPKQKADVESMIPMGYIGEPEEIAAVAVWLASKESSYVTGITLFADGGMTKYPSFQAGRG
B2: GlucDH_E170K_K252L (protein)
chain: B1 chain with E170K, K252L
modifications: Mutant of glucose dehydrogenase from Bacillus subtilis
B3: GlucDH_E170K (protein, UniProt P12310 1-261, looked up, variant E170K)
Glucose 1-dehydrogenase: B1 chain with E170K, V229A, S236A, K252Q

Key:
Assay type in all cases: biochemical
[1] = target: T1, glucose dehydrogenase from Bacillus subtilis (Bacillus subtilis, UniProt P12310, A229V/A236S/Q252K); details: test strips, coenzyme NAD, blood with adjusted glucose values; 1556.2 to 25.10 kU/100 g mass
[2] = target: T1, glucose dehydrogenase from Bacillus subtilis; details: enzyme used in the test strips; coenzyme NAD
[3] = tested on: glucose dehydrogenase from Bacillus subtilis; details: for activity, U/mg enzyme / activity, U/mg lyophilisate: cuvette, 25° C., 340 nm; for % U/mg lyophilisate relative to NAD: coenzyme carbaNAD relative to NAD; for activity with carbaNAD compared with activity with NAD: standardized conditions in a cuvette
[4] = tested on: glucose dehydrogenase from Bacillus subtilis; assay: Enzyme activity before and after temperature stress (stress test) of clones; details: stress test: 30 min at 50° C.; tested in Escherichia coli XL1blue MRF′
Protocol: The PCR product obtained was transformed into Escherichia coli XL1blue MRF′. The cells were plated out, clones containing plasmid were cultured overnight and the enzyme activity was determined before and after temperature stress (stress test: 30 min at 50° C.).

[5] = target: T2, glucose dehydrogenase from Bacillus subtilis (Bacillus subtilis, UniProt P12310, A229V/A236S/E170K/Q252L); details: test strips, coenzyme carbaNAD, 4.60 kU/100 g mass; versus all wild type/NAD formulations of table 3
[6] = target: T2, glucose dehydrogenase from Bacillus subtilis; details: enzyme used in the test strips; coenzyme carbaNAD

T2 sequence (P12310 whole entry E170K/A229V/A236S/Q252L): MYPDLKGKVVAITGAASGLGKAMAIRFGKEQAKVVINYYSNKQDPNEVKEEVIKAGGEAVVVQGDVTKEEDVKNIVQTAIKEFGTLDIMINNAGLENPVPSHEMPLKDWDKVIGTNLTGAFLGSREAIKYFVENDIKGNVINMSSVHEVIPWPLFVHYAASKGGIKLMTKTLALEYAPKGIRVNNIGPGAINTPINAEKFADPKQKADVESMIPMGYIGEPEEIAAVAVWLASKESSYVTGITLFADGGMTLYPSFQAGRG

Molecule | kinetics of the conversion of glucose [1] | lyophilisate activity (U/mg) [2] [U/mg] | Vmax (U/mg lyophilsate) [3] | Km ([3]; coenzyme NAD) [µM] | activity, U/mg enzyme ([3]; coenzyme NAD) [U/mg enzyme] | activity, U/mg lyophilisate ([3]; coenzyme NAD) [U/mg lyophilisate] | Km ([3]; coenzyme carbaNAD) [µM] | Vmax (U/mg lyophilisate) ([3]; coenzyme carbaNAD) | % U/mg lyophilisate relative to NAD [3] [%] | activity, U/mg enzyme ([3]; coenzyme carbaNAD) [U/mg enzyme] | activity, U/mg lyophilisate ([3]; coenzyme carbaNAD) [U/mg lyophilisate] | activity with carbaNAD compared with activity with NAD [3] | residual activity after stress (%) [4] [%] | kinetics of the conversion of glucose [5] | lyophilisate activity (U/mg) [6] [U/mg]
B1 | worsened with a decreasing enzyme content | 251 | 122 | 80 | 484 | 203 | 300 | 3 | 1.7 | 8.2 | 3.4 | two orders of magnitude lower | 23 | – | –
B2 | – | – | 144 | 70 | 270 | 167 | 1400 | 13 | 1.4 | 3.7 | 2.3 | about two orders of magnitude lower | 130 | better kinetics | 2.3
B3 | – | – | – | – | – | – | – | – | – | – | – | – | 80 | – | –
